In US20190021294A1 (WAKE FOREST UNIVERSITY HEALTH SCIENCES, published 2019):

Target: the molecule itself
Test: X-ray crystal structure of the TREX1 D18N-dsDNA complex (homodimer of protomers)
Protocol: Structure Determination. The mouse recombinant Trex1 enzyme (amino acids 1-242) was prepared and crystallized with a dsDNA oligonucleotide. The X-ray data were collected and processed as described further below.
Protein Crystallization and X-ray Data Collection. The TREX1 D18N mutant was crystallized using the sitting drop vapor diffusion technique. The protein was dialyzed in 20 mM MES (pH 6.5), 50 mM NaCl and concentrated to 10 mg/mL. The pseudo-palindromic oligonucleotide DNA used for crystallization (5′-[…]-3′ (SEQ ID NO:1, Operon)) was self-annealed in buffer consisting of 20 mM NaCl, 5 mM MgCl₂, and 5 mM MES, pH 6.5. The complex was formed by incubating dsDNA with the protein in a 1:1 ratio and 5 mM magnesium chloride. A volume of 1 μl protein complex at 4 mg/ml TREX1 was mixed with an equal volume of reservoir solution and placed on a bridge above 500 μl of the reservoir solution. Optimized crystals of the TREX1 D18N mutant grew in 0.1 M sodium acetate and 9% PEG 4000 at 25° C. Prior to data collection all crystals were immersed in reservoir solution containing 10% oil (1:1 mineral oil and pantone-N) in preparation for cryo-cooling. Crystals were mounted on a nylon loop and flash cooled to 100 K in a stream of liquid nitrogen.

B1: mouse recombinant TREX1 D18N enzyme (amino acids 1-242) (enzyme, Mus musculus, UniProt Q91XB0 1-242, looked up)
chain: MGSQTLPHGHMQTLIFLNLEATGLPSSRPEVTELCLLAVHRRALENTSISQGHPPPVPRPPRVVDKLSLCIAPGKACSPGASEITGLSKAELEVQGRQRFDDNLAILLRAFLQRQPQPCCLVAHNGDRYDFPLLQTELARLSTPSPLDGTFCVDSIAALKALEQASSPSGNGSRKSYSLGSIYTRLYWQAPTDSHTAEGDVLTLLSICQWKPQALLQWVDEHARPFSTVKPMYGTPATTGTT
notes: range 1-242; Written as one protomer, because the entry is the protomer-protomer association; also called TREX1 D18N mutant; TREX1 D18N protomer
B1: binds.
